How the values were obtained:
[1] = biological target: T1, EcoRV endonuclease (wild type) (UniProt P04390 2-245); experiment: NMR
[2] = biological target: T1, EcoRV endonuclease (wild type); experiment: NMR; remark: listed apart in the source
[3] = biological target: T1, EcoRV endonuclease (wild type); experiment: X-ray crystallography
[4] = biological target: T1, EcoRV endonuclease (wild type); experiment: X-ray crystallography; remark: listed apart in the source
[5] = biological target: T1, EcoRV endonuclease (wild type); experiment: NMR; remark: listed apart in the source

T1 sequence (P04390 2-245): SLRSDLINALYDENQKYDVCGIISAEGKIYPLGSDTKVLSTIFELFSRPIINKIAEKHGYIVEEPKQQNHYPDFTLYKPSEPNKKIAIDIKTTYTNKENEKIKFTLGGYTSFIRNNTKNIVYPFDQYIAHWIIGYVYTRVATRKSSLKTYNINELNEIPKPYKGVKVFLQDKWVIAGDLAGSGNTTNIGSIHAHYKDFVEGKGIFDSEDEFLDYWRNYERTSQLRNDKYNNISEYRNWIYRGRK

B1: nonspecific 16 bp inverted site CTATAG (dsDNA)
DNA 1: GCAAACTATAGTTTCG
DNA 2: CGAAACTATAGTTTGC
binding result [1]: binds

B2: cleaved 24 bp duplex products (dsDNA)
DNA 1: CGCTGGAAAGAT
DNA 2: ATCTTTCCAGCG
DNA 3: ATCTTTGGAGGC
DNA 4: GCCTCCAAAGAT
binding result [2]: binds

B3: cognate 12 bp crystal duplex (dsDNA)
DNA 1: AAAGATATCTTT
DNA 2: AAAGATATCTTT
binding result [3]: binds

B4: cleaved 12 bp crystal duplex (dsDNA)
DNA 1: AAAGAT
DNA 2: ATCTTT
binding result [4]: binds

B5: cognate 16 bp GATATC (dsDNA)
DNA 1: GCAAAGATATCTTTCG
DNA 2: CGAAAGATATCTTTGC
binding result [5]: binds
